Assay results from US20260028422A1 (CONCEPT TO MEDICINE BIOTECH, published 2026).
Where two headings read alike, the source gives them in different places.

T1: human MerTK expressed on cells (human, UniProt Q12866 21-999)
T1 construct: whole, on cells; also called CHO-K1-hMerTK; CHO-K1-MerTK
T1 sequence (looked up): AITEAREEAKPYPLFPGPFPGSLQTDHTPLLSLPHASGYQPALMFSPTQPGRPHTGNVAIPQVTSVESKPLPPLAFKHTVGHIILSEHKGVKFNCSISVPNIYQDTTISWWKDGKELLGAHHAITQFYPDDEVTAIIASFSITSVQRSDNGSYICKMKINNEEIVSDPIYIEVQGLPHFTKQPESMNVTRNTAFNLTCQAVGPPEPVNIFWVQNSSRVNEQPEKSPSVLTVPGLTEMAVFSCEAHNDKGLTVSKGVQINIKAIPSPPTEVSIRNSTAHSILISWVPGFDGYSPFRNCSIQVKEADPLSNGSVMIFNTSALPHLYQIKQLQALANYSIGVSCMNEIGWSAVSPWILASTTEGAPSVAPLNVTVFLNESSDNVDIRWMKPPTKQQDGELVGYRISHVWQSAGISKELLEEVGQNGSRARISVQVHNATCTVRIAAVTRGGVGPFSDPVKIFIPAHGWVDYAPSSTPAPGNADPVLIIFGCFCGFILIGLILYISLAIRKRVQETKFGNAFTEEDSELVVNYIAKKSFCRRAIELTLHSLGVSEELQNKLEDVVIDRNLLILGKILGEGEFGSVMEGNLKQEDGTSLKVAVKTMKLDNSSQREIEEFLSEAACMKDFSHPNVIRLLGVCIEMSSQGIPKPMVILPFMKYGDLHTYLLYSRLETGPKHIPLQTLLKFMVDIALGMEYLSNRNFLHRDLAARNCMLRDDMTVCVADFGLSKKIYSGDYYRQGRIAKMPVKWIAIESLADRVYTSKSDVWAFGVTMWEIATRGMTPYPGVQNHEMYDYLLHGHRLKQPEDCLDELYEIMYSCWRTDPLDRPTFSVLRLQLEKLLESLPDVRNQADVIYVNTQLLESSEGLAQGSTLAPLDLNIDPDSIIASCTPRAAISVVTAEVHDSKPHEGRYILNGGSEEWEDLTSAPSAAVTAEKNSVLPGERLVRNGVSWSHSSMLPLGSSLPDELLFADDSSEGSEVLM

T2: Human MerTK-mouse Fc fusion protein (human, UniProt Q12866 21-499, limits assumed)
T2 construct: also called hMerTK; Human MerTK-mouse Fe fusion protein
T2 sequence (looked up): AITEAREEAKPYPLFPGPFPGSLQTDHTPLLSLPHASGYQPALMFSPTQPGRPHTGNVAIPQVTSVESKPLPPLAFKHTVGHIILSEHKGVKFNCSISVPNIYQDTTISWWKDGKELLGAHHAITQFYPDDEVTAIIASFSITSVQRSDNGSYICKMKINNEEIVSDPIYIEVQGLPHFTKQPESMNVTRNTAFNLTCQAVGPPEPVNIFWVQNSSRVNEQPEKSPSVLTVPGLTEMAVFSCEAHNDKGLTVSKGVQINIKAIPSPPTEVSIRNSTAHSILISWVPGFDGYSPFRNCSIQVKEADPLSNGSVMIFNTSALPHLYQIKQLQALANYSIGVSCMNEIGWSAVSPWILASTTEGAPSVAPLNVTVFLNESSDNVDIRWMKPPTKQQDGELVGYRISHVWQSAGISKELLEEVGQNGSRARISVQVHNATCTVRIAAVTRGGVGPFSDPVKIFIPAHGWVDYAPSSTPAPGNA


Experiments:
[1] = target: T1, human MerTK expressed on cells; assay: FACS on CHO-K1 cells overexpressing human MerTK, MFI (PE)
Experimental: (§1) To evaluate the binding property to the antigen expressed on the cells, the chimeric monoclonal antibodies were analyzed for their binding to human MerTK overexpressed on CHO-K1 cells by FACS. Briefly, human MerTK overexpressing CHO-K1 (CHO-K1-MerTK) cells were firstly incubated with 5-fold serially diluted mAbs starting at 20 nM at 4° C. for 1 hour. After washing with FACS buffer, the PE conjugated anti-human IgG-Fc secondary antibody was added to each well and incubated at 4° C., for 30 mins. The mean fluorescence intensity (MFI) of PE were evaluated by QuantAnalyzer 16.

[2] = target: T2, Human MerTK-mouse Fc fusion protein; assay: FACS blocking: binding of human MerTK-mouse Fc to Jurkat cells overexpressing human Gas6, MFI (AF488)
Experimental: (§2) To evaluate the blocking effects of anti-hMerTK mAbs on hMerTK binding to its ligand hGas6, a receptor blocking assay was set-up. Briefly, Jurkat cells engineered to overexpress human Gas6 were added to the 96-well microplates at a density of 5×10⁴ cells per well. Human MerTK-mouse Fe fusion protein (50 μL/well, […]) and the MerTK chimeric antibodies with a 3-fold serial dilution starting from 120 nM at a volume of 50 μL were added to the 96-well plates and incubated at 4° C. for 30 mins. After washing with FACS buffer, the plates were incubated with diluted Alex Fluor 488 conjugated goat anti-mouse IgG antibody for 30 mins at 4′C. After washing, the plates were analyzed by QuantAnalyzer 16.

[3] = target: T1, human MerTK expressed on cells; assay: FACS on CHO-K1 cells overexpressing human MerTK, MFI (PE); remark: listed apart in the source
Experimental: as §1

[4] = target: T1, human MerTK expressed on cells; assay: FACS on SK-MEL-5 cells expressing human MerTK, geometric mean
Experimental: To evaluate the binding properties on MerTK expressed on cells, the chimeric monoclonal antibodies were analyzed for their binding to human melanoma cell line SK-MEL-5 expressing MerTK by FACS analysis. Briefly, SK-MEL-5 cells were firstly incubated with 5-fold serially diluted chimeric mAbs starting at 20 nM at 4° C. for 30 mins. After washing by FACS buffer, the PE conjugated anti-human IgG secondary antibody was incubated with the cell-antibody complex in the wells at 4° C. for 30 mins to detect the antibodies those bound to the cells. The MFI of PE was evaluated by QuantAnalyzer 16.

[5] = target: T2, Human MerTK-mouse Fc fusion protein; assay: FACS blocking: binding of human MerTK-mouse Fc to Jurkat cells overexpressing human Gas6, MFI (AF488); remark: listed apart in the source
Experimental: as §2

Row | Binder | EC50 [1] [nM] | Top [1] | IC50 [2] [nM] | EC50 [3] [nM] | Top [3] | EC50 [4] [nM] | Top [4] [Geometric Mean] | IC50 [5] [nM]
1 | 276C2D1 chimeric monoclonal antibody (antibody, V domains shown) VH: QVQLQQSGPELVKPGASVKLSCKASGYTFTSYDINWVKQRPGLGLEWIGWIYPRDGYTKYNEKFKGKATLAVDTSSSTAYMELHSLTSEDSAVYFCARGYYSNLYYFDYWGQGTTLTVSS VL: EVVLTQSPPTMAASPGEKITITCSASSSISSNYLHWYQQKPGFSPKLLIYRTSNLASGVPARFSGSGSGTSYSLTIGTMEAEDVATYYCQQGRSIPLTFGAGTKLELK | 0.04 | 7750 MFI (PE) | 0.813 | – | – | – | – | –
2 | 10F7D9 chimeric monoclonal antibody (antibody, V domains shown) VH: QIQLVQSGPELKKPGETVKISCKASGYTFTNYGMNWVKQAPGKGLKWMGWINTYTGEPTYADDFKGRFAFSLETSASTAYLQINNLKNEDLATYFCATYGHYAWFAYWGQGTLVTVSA VL: QIVLSQSPAILSASPGEKVTMTCRASSSVSYMHWYQQKSGSSPKPWIYATSNLASGVPARFSGSGSGTSYSLTISRVEAEDAATYFCQQWGTKPLTFGAGTKLELK | – | – | – | 0.04 | 10800 MFI (PE) | 0.025 | 7070 | 0.696
3 | 85H8D5 chimeric monoclonal antibody (antibody, V domains shown) VH: QIQLVQSGPELKKPGETVKISCMASGYTFTTHGVTWVKQAPGQGLQRMGWINTYSGVPTYADDFKGRFVFSLETSANTAHLQINNLKNEDTATYFCARTNNYRYFDVWGTGTTVTVSS VL: QIVLSQSPAILSSSPGEKVTMTCRASSSVSYMHWYQQKPGSSPKPWIYATSNLASGVPARFSGSGSGTSYFLTISRVEAEDAATYYCQQWNTDPPTFGGGTKLEIK | – | – | – | 0.054 | 10500 MFI (PE) | 0.022 | 6860 | 0.802
4 | 252C12B10 chimeric monoclonal antibody (antibody, V domains shown) VH: QVQLQQPGTELVKPGASVKLSCKTSGYTFTSYWMHWMKQRPGQGLEWLGHINPSTGGSNYNEKFKSKATLTVDKSSNTAYMQLSSLTSEDSAVYYCARPRGFYGYSYWYFDVWGSGTTVTVSS VL: DIQMTQTTSSLSASLGDRVTISCSASQDINNYLNWYQHKPDGTIKVLIYFTSSLHSGVPSRFSGSGSGTEYSLTISNLEPEDIATYYCQQYSKLPPTFGSGTKLEIK | – | – | – | 0.063 | 6040 MFI (PE) | 0.043 | 4460 | 0.78
5 | 216G3D6 chimeric monoclonal antibody (antibody, V domains shown) VH: QVTLKESGPGILQPSQTLSLTCSFSGFSLSTSGMGVGWIRQPSGKGLEWLAHIWWDDDKHCNPALKSRLTISKDTSSNQVFLKIASLDTADTATYYCTQMTMTREFAYWGQGTLVTVSA VL: DIQMTQTISSLSASLGDRVTISCSAGQGISNYLNWYQQKPDGTVKLLIYYTSRLHSGVPSRFSGSGSGTDFSLTISNLEPEDIATYFCQQYSKFPYTFGGGTKLEIK | – | – | – | 0.17 | 11000 MFI (PE) | 0.17 | 8270 | 0.802
6 | 247E5A8 chimeric monoclonal antibody (antibody, V domains shown) VH: DVQLQESGPGLVKPSQSLSLTCSVTGYSITGGYYWTWIRQFPGNKLEWMGYISYDGDNNYNPSLKNRISITRDTSKNQFFLNLNSVTTEDTATYYCAREGGRLRTMDYWGQGTSVTVSS VL: QIVLTQSPAIMSASPGEKVTITCRASSSVNYMHWFQQKPGTSPKLWIYTTSNLASGVPARFSGSGSGTSYSLTISRMEAEDAATYYCQQRSSYPFTFGSGTKLEIK | – | – | – | 0.12 | 10800 MFI (PE) | 0.094 | 7160 | 0.787

Other lines, results leading:

Row | EC50 [1] [nM] | Top [1] | IC50 [2] [nM] | EC50 [3] [nM] | Top [3] | EC50 [4] [nM] | Top [4] [Geometric Mean] | IC50 [5] [nM] | Binder
7 | 0.044 | 8310 MFI (PE) | 0.701 | – | – | – | – | – | 280C6A3 chimeric monoclonal antibody (antibody, V domains shown) VH: QVQLQQSGPELVKPGASVKLSCKASGYSFTTYDINWVKQRPGQGLEWIGWIYPRDGSTKYNEKFKGKATLTLDTSSNTAYMGLHSLTSEDSAVYFCARGYYDNLYYFDYWGQGTTLTVSS VL: EIVLTQSPTTMAASPGEKITITCSASSSVSSNYLHWYQQKPGFSPKLLIYRTSNLASGVPARFSGSGSGTSYSLTIGTMEAEDVATYYCQQGRIVPLTFGAGTKLELK
8 | 0.061 | 9460 MFI (PE) | 0.798 | – | – | – | – | – | 265F11B5 chimeric monoclonal antibody (antibody, V domains shown) VH: QVQLQQSGPELVKPGASVRLSCKASGYTFTTYDINWVKQRPGLGLEWIGWIYPRDGYTKYNEKFKGRATLAVDTSSSTAYMELHSLTSEDSAVYFCTRGYYDNLYYFDYWGQGTTLTVSS VL: EIVLTQSPTTVAASPGEKITITCSASSIISSNYFHWYQQRPGFSPKLLIYRTSNLASGVPARFSGSGSGTSYSLTIGTMEAEDVATYYCQQGRSVPLTFGAGTKLELK
9 | 0.064 | 7700 MFI (PE) | 0.779 | – | – | – | – | – | 293C2B7 chimeric monoclonal antibody (antibody, V domains shown) VH: QVQLQQSGPELVKPGASVKLSCKASGYTFTSYDINWVKQRPGQGLEWIGWIYPRDGYTKYKEKFKGKATLTVDTSSSTAYMELHSLTSEDSAVYFCARGFYSNLYYFDYWGQGTTLTVSS VL: EIVLTQSPTTMATSPGEKITITCSASSSISSNYLHWYQQKPGFSPKLLIYRTSNLASGVPDRFSGSGSGTSYSLTIGTMEAEDVATYYCQQGRSIPLTFGAGTKLELK
10 | 0.076 | 8350 MFI (PE) | 0.867 | – | – | – | – | – | 300A5A3 chimeric monoclonal antibody (antibody, V domains shown) VH: QVQLQQSGPELVKPGASVKLSCKASGYTFTTYDINWVKQRPGLGLEWIGWIYPRDGYTKYNEKFKGKATLAVDTSSSTASMELHSLTSEDSAVYFCARGYYDNLYYFDNWGPGTTLTVSS VL: ENVLTQSPTTVAASPGEKITITCSASSIISSNYLHWYQQKPGFSPKLLIYRTSNLASGVPARFSGSGSGTSYSLTIGTMEAEDAATYYCQQGRSVPLTFGAGTKLELK
11 | 0.19 | 5630 MFI (PE) | ~0.773 | – | – | 0.18 | 4840 | – | 254B4D9 chimeric monoclonal antibody (antibody, V domains shown) VH: QIQLVQSGPELKKPGETVKISCKASGYTFTAYGMSWVKQAPGKGLQWMGWINTYSGVPTYTDDFKGRFAFSLEASASTAFLQINNLKNEDTSTYFCARRAAVVAKYWYFDVWGTGTTVTVSS VL: DIQMTQSPSSLFASLGGKVIITCKSSQDINKRISWYQHKPGKGPRLLIHSTSSLQPGIPLRFSGSGSGRDYSFSISNLEPEDIATYFCLQYDNLLTFGAGTKLELK
